Measurements from PMC8754202 (Journal of Virology, 2021).

Key:
[1] = target: N-terminal peptidase domain of wild-type human ACE2 (residues Met1-Asp615) (human, UniProt Q9BYF1 18-615); assay: SPR
[2] = target: N-terminal peptidase domain of human ACE2 [change] variant (residues Met1-Asp615) (human, UniProt Q9BYF1 18-615); assay: SPR

| Binder | Kd [1] [nM] | Kd [2] [nM] |
| --- | --- | --- |
| HCoV-NL63 receptor-binding domain (residues Gln481-Ile616) (domain or fragment) QHTDINFTATASFGGSCYVCKPHQVNISLNGNTSVCVRTSHFSIRYIYNRVKSGSPGDSSWHIYLKSGTCPFSFSKLNNFQKFKTICFSTVEVPGSCNFPLEATWHYTSYTIVGALYVTWSEGNSITGVPYPVSGI | 575 | 2610 |
| SARS-CoV receptor-binding domain (residues Arg306-Leu515) (domain or fragment) not shown | 511 | – |
